# From US20210388087A1 (Chugai, published 2021)
# Changes are numbered by the printed parent chain. Names and notes keep the numbering of the source.
# B1: CE115HA000 T28D one-arm antibody (antibody, human IgG1, kappa, L234A L235A, N297A, name in Kabat numbering)
# heavy: QVQLVESGGGVVQPGRSLRLSCAASGFDFSNAWMHWVRQAPGKGLEWVAQIKAKSNNYATYYAESVKGRFTISRDDSKNSLYLQMNSLKTEDTAVYYCRYVHYGAYYGVDAWGQGTTVTVSSASTKGPSVFPLAPSSKSTSGGTAALGCLVKDYFPEPVTVSWNSGALTSGVHTFPAVLQSSGLYSLSSVVTVPSSSLGTQTYICNVNHKPSNTKVDKKVEPKSCDKTHTCPPCPAPEAAGGPSVFLFPPKPKDTLMISRTPEVTCVVVDVSHEDPEVKFNWYVDGVEVHNAKTKPREEQYASTYRVVSVLTVLHQDWLNGKEYKCKVSNKALPAPIEKTISKAKGQPREPQVYTLPPSRCELTKNQVSLSCAVKGFYPSDIAVEWESNGQPENNYKTTPPVLDSDGSFFLVSKLTVDKSRWQQGNVFSCSVMHEALHNHYTQKSLSLSPDYKDDDDK
# chain: EPKSSDKTHTCPPCPAPELLGGPSVFLFPPKPKDTLMISRTPEVTCVVVDVSHEDPEVKFNWYVDGVEVHNAKTKPREEQYNSTYRVVSVLTVLHQDWLNGKEYKCKVSNKALPAPIEKTISKAKGQPREPQVCTLPPSRDELTKNQVSLWCLVKGFYPSDIAVEWESNGQPENNYKTTPPVLDSDGSFFLYSKLTVDKSRWQQGNVFSCSVMHEALHNRYTQKSLSLSP
# light: DIVMTQSPLSLPVTPGEPASISCRSSQSLVHSNRNTYLHWYQQKPGQAPRLLIYKVSNRFSGVPDRFSGSGSGTDFTLKISRVEAEDVGVYYCGQGTQVPYTFGQGTKLEIKRTVAAPSVFIFPPSDEQLKSGTASVVCLLNNFYPREAKVQWKVDNALQSGNSQESVTEQDSKDSTYSLSSTLTLSKADYEKHKVYACEVTHQGLSSPVTKSFNRGEC
# B2: CE115HA000 W33H one-arm antibody (antibody, human IgG1, kappa, L234A L235A, N297A, name in Kabat numbering)
# heavy: B1 heavy with D28T, W33H
# chain: B1 chain
# light: B1 light
# B3: CE115HA000 W33L one-arm antibody (antibody, human IgG1, kappa, L234A L235A, N297A, name in Kabat numbering)
# heavy: B1 heavy with D28T, W33L
# chain: B1 chain
# light: B1 light
# B4: CE115HA000 V100cP one-arm antibody (antibody, human IgG1, kappa, L234A L235A, N297A, name in Kabat numbering)
# heavy: B1 heavy with D28T, V109P
# chain: B1 chain
# light: B1 light
# B5: CE115HA000 Y55S one-arm antibody (antibody, human IgG1, kappa, L234A L235A, N297A, name in Kabat numbering)
# heavy: B1 heavy with D28T, Y58S
# chain: B1 chain
# light: B1 light
# B6: CE115HA000 Y55G one-arm antibody (antibody, human IgG1, kappa, L234A L235A, N297A, name in Kabat numbering)
# heavy: B1 heavy with D28T, Y58G
# chain: B1 chain
# light: B1 light
# B7: CE115HA000 V95G one-arm antibody (antibody, human IgG1, kappa, L234A L235A, N297A, name in Kabat numbering)
# heavy: B1 heavy with D28T, V101G
# chain: B1 chain
# light: B1 light
# B8: CE115HA000 W33A one-arm antibody (antibody, human IgG1, kappa, L234A L235A, N297A, name in Kabat numbering)
# heavy: B1 heavy with D28T, W33A
# chain: B1 chain
# light: B1 light
# B9: CE115HA000 V95K one-arm antibody (antibody, human IgG1, kappa, L234A L235A, N297A, name in Kabat numbering)
# heavy: B1 heavy with D28T, V101K
# chain: B1 chain
# light: B1 light
# B10: CE115HA000 T57N one-arm antibody (antibody, human IgG1, kappa, L234A L235A, N297A, name in Kabat numbering)
# heavy: B1 heavy with D28T, T60N
# chain: B1 chain
# light: B1 light
# B11: CE115HA000 T57I one-arm antibody (antibody, human IgG1, kappa, L234A L235A, N297A, name in Kabat numbering)
# heavy: B1 heavy with D28T, T60I
# chain: B1 chain
# light: B1 light
# B12: CE115HA000 V100cD one-arm antibody (antibody, human IgG1, kappa, L234A L235A, N297A, name in Kabat numbering)
# heavy: B1 heavy with D28T, V109D
# chain: B1 chain
# light: B1 light
# B13: CE115HA000 Y58D one-arm antibody (antibody, human IgG1, kappa, L234A L235A, N297A, name in Kabat numbering)
# heavy: B1 heavy with D28T, Y61D
# chain: B1 chain
# light: B1 light
# B14: CE115HA000 V95E one-arm antibody (antibody, human IgG1, kappa, L234A L235A, N297A, name in Kabat numbering)
# heavy: B1 heavy with D28T, V101E
# chain: B1 chain
# light: B1 light
# B15: CE115HA000 V95S one-arm antibody (antibody, human IgG1, kappa, L234A L235A, N297A, name in Kabat numbering)
# heavy: B1 heavy with D28T, V101S
# chain: B1 chain
# light: B1 light
# B16: CE115HA000 Y58L one-arm antibody (antibody, human IgG1, kappa, L234A L235A, N297A, name in Kabat numbering)
# heavy: B1 heavy with D28T, Y61L
# chain: B1 chain
# light: B1 light
# B17: CE115HA000 T28S one-arm antibody (antibody, human IgG1, kappa, L234A L235A, N297A, name in Kabat numbering)
# heavy: B1 heavy with D28S
# chain: B1 chain
# light: B1 light
# B18: CE115HA000 V100cE one-arm antibody (antibody, human IgG1, kappa, L234A L235A, N297A, name in Kabat numbering)
# heavy: B1 heavy with D28T, V109E
# chain: B1 chain
# light: B1 light
# B19: CE115HA000 V11L one-arm antibody (antibody, human IgG1, kappa, L234A L235A, N297A, name in Kabat numbering)
# heavy: B1 heavy with V11L, D28T
# chain: B1 chain
# light: B1 light
# B20: CE115HA000 Y58N one-arm antibody (antibody, human IgG1, kappa, L234A L235A, N297A, name in Kabat numbering)
# heavy: B1 heavy with D28T, Y61N
# chain: B1 chain
# light: B1 light
# B21: CE115HA000 W33D one-arm antibody (antibody, human IgG1, kappa, L234A L235A, N297A, name in Kabat numbering)
# heavy: B1 heavy with D28T, W33D
# chain: B1 chain
# light: B1 light
# B22: CE115HA000 W33F one-arm antibody (antibody, human IgG1, kappa, L234A L235A, N297A, name in Kabat numbering)
# heavy: B1 heavy with D28T, W33F
# chain: B1 chain
# light: B1 light
# B23: CE115HA000 V95A one-arm antibody (antibody, human IgG1, kappa, L234A L235A, N297A, name in Kabat numbering)
# heavy: B1 heavy with D28T, V101A
# chain: B1 chain
# light: B1 light
# B24: CE115HA000 T57K one-arm antibody (antibody, human IgG1, kappa, L234A L235A, N297A, name in Kabat numbering)
# heavy: B1 heavy with D28T, T60K
# chain: B1 chain
# light: B1 light
# B25: CE115HA000 Y58K one-arm antibody (antibody, human IgG1, kappa, L234A L235A, N297A, name in Kabat numbering)
# heavy: B1 heavy with D28T, Y61K
# chain: B1 chain
# light: B1 light
# B26: CE115HA000 T57A one-arm antibody (antibody, human IgG1, kappa, L234A L235A, N297A, name in Kabat numbering)
# heavy: B1 heavy with D28T, T60A
# chain: B1 chain
# light: B1 light
# B27: CE115HA000 Y58Q one-arm antibody (antibody, human IgG1, kappa, L234A L235A, N297A, name in Kabat numbering)
# heavy: B1 heavy with D28T, Y61Q
# chain: B1 chain
# light: B1 light
# B28: CE115HA000 Y55D one-arm antibody (antibody, human IgG1, kappa, L234A L235A, N297A, name in Kabat numbering)
# heavy: B1 heavy with D28T, Y58D
# chain: B1 chain
# light: B1 light
# B29: CE115HA000 V95D one-arm antibody (antibody, human IgG1, kappa, L234A L235A, N297A, name in Kabat numbering)
# heavy: B1 heavy with D28T, V101D
# chain: B1 chain
# light: B1 light
# B30: CE115HA000 W33Y one-arm antibody (antibody, human IgG1, kappa, L234A L235A, N297A, name in Kabat numbering)
# heavy: B1 heavy with D28T, W33Y
# chain: B1 chain
# light: B1 light
# B31: CE115HA000 Y58A one-arm antibody (antibody, human IgG1, kappa, L234A L235A, N297A, name in Kabat numbering)
# heavy: B1 heavy with D28T, Y61A
# chain: B1 chain
# light: B1 light
# Target: T1, CD3 epsilon homodimer protein (UniProt P07766 23-126)
# T1 construct: immobilized on Sensor chip CM4 by amine coupling; also called CD3 (CD3 epsilon)
# Test: SPR (Biacore T200), CD3 epsilon homodimer on CM4 chip, one-arm antibody as analyte, 25 C;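 note: homodimer attached to the sensor surface via amine coupling, HBS-EP+ used as running buffer during binding runs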
# T1 sequence (P07766 23-126): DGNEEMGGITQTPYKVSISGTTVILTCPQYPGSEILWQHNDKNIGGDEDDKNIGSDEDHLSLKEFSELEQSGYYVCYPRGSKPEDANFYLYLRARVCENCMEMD
row,Binder,ratio of amounts bound (altered form / CE115HA000)
1,B1,0.56
2,B2,0.13
3,B3,0.1
4,B4,0.2
5,B5,0.26
6,B6,0.55
7,B7,0.19
8,B8,0.1
9,B9,0.64
10,B10,0.97
11,B11,0.61
12,B12,0.44
13,B13,0.11
14,B14,0.24
15,B15,0.22
16,B16,0.27

row,Binder,ratio of amounts bound (altered form / CE115HA000)
1,B17,0.91
2,B18,0.46
3,B19,1
4,B20,0.33
5,B21,0.1
6,B22,0.65
7,B23,0.11
8,B24,1.32
9,B25,0.3
10,B26,0.98
11,B27,0.19
12,B28,0.45
13,B29,0.24
14,B30,0.66
15,B31,0.22
